Molecular target: GmPUB13(252-630) (soybean (Glycine max))
Experiment: ITC

Substance: Avr1d (purified protein for ITC and gel filtration) (natural protein)
- Kd: 89 nM
